Measured values as given in the supplement of paper PMC9170038.

Legend:
MS2 coat protein [1] = assay: apparent KD of MS2 coat protein, switch ON state; designed switch direction (-1 OFF switch, 1 ON switch): -1; higher = weaker reporter binding; settings: FMN input: 0 or 200 uM; Eterna round: R93 (includes R88 designs)
Summary of the method: (§1)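 Illumina sequencing clusters served as templates for on-chip transcription of the designed RNA switches. SNAP-549-labelled MS2 coat protein was then titrated in twofold steps from 0.7 or 1.5 nM to 3 µM, allowing 0.8–1.5 h per step at first and 10–20 min per step later. The buffer held 100 mM Tris-HCl pH 7.5, 80 mM KCl and 4 mM MgCl2, without or with constant ligand. Apparent KD is the median per design of normalised cluster binding-curve fits.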

MS2 coat protein [2] = assay: apparent KD of MS2 coat protein, switch OFF state (with FMN for OFF switches, without FMN for ON switches); designed switch direction (-1 OFF switch, 1 ON switch): -1; higher = weaker reporter binding; settings: FMN input: 0 or 200 uM; Eterna round: R93 (includes R88 designs)
Summary of the method: as §1

| Sequence | apparent KD of MS2 coat protein (MS2 coat protein [1]) | apparent KD of MS2 coat protein (MS2 coat protein [2]) |
| --- | --- | --- |
| CAAAACAGAGGAUAUACAUGAGGAUCACCCAUGUAAAAAUGUAGAAGGCUGAAACAAACAAGAAGGAAACAAAA [Meechl Ex3 R2 m3] | 23.7 nM | 30.1 nM |
| CAGUACUGAGGAUAUACAUGAGGAUCACCCAUGUAAAAAAGCUACGAAAGUAGCAAAUGUAGAAGGCAGUACUG [Ex3: 804] | 15.5 nM | 22.8 nM |
| CCUAUGUCAGGAUAUCAGUAGUAAAAAAAAAAAAUUACUACUGAGAAGGGACAUGAGGAUCACCCAUGUCCCUU [EX4 309: Super Stable 9] | 15.3 nM | 14.3 nM |
| CUCAUGUAAGGAUAUAUAUGAAAUGAAGUGAAAGAAAAGAAAUAGAAGGUACAUGAGGAUCACCCAUGUUAGAA [EteRNA is fun!] | 59.2 nM | 38.7 nM |
| CUCUAGUCAGGAUAUUCAAGAAAAGAAAAGAAAGAAAAGAAGAAGAAGGGACAUGAGGAUCACCCAUGUAAGAA [EteRNA is fun!] | 46.7 nM | 46.5 nM |
| CUCUUGUAAGGAUAUUAAUGAAAUGAAGUGAAAGAAAAGAAUAAGAAGGUACAUGAGGAUCACCCAUGUUAGAA [EteRNA is fun!] | 28.9 nM | 27 nM |
| CUCUUGUCAGGAUAUAGAAGAAAAGAAAAGAAAGAAAAGAACUAGAAGGGACAUGAGGAUCACCCAUGUAAGAA [EteRNA is fun!] | 87.5 nM | 62.9 nM |
| CUCUUGUCAGGAUAUCUAAGAAAAGAAGAGAAAGAAAAGAAAGAGAAGGGACAUGAGGAUCACCCAUGUAAGAA [EteRNA is fun!] | 59.3 nM | 32.4 nM |
| CUCUUGUCAGGAUAUGUAAGAAAAGAAGAGAAAGAAAAGAAACAGAAGGGACAUGAGGAUCACCCAUGUAAGAA [EteRNA is fun!] | 66.4 nM | 77 nM |
| CUCUUGUGAGGAUAUCCAUGAAAUGAAGUGAAAGAAAAGAAGGAGAAGGCACAUGAGGAUCACCCAUGUUAGAA [EteRNA is fun!] | 49.6 nM | 24.3 nM |
| CUUAUGUAAGGAUAUCAGUAGUAAAAAAAUAAAAUUACUACUGAGAAGGUACAUGAGGAUCACCCAUGUCCGGG [EX4 375: Super Stable 75] | 74.3 nM | 24.7 nM |
| GAAAAACAUGAGGAUCACCCAUGUAAGGAUAUGCGAAAAUAAAAUAAAAUAAAAUAAAGCAGAAGGUACAAAAA [Mat - Exclusion 1 - Eli mod - D1] | 29.5 nM | 40.5 nM |
| GAAAAACAUGAGGAUCACCCAUGUAAGGAUAUGCUAAAAAACACGGAAAAACGUGAUAGCAGAAGGUACAAAAA [Mat - Exclusion 1 - Eli mod - D89] | 24.1 nM | 36.5 nM |
| GAAAAACAUGAGGAUCACCCAUGUAAGGAUAUGCUAAAAAACACGGAAAACGUGAAUAGCAGAAGGUACAAAAA [Mat - Exclusion 1 - Eli mod - D86] | 20.6 nM | 23.6 nM |
| GAAAAACAUGAGGAUCACCCAUGUAAGGAUAUGCUAAAAAACACGGAAAACGUGAAUAGCAGAAGGUACAAAAG [Mat - Exclusion 1 - Eli mod - D85] | 25 nM | 46.8 nM |
| GAAAAACAUGAGGAUCACCCAUGUAAGGAUAUGCUGAAAAACACGGAAAAAACGUGCAGCAGAAGGUACAAAAG [Mat - Exclusion 1 - Eli mod - D91] | 16.7 nM | 131 nM |
| GAAAAACAUGAGGAUCACCCAUGUAAGGAUAUGCUGAAAAACACGGAAAAACGUGACAGCAGAAGGUACAAAAG [Mat - Exclusion 1 - Eli mod - D94] | 18.3 nM | 40 nM |
| GAAAACCUAGGAUAUACAUGAGGAUCACCCAUGUCAGUAGACUGGGUAAGGUCUCUCAGUAGAAGGAGGACCCA [Ratilein] | 315 nM | 318 nM |
| GAAAACUGAGGAUAUACUUUGGGAAAAGAAAAGAUGAUGUUACAUGAGGAUCACCCAUGUAGAAGGCAGAAAAA [Default title] | 26.4 nM | 39.4 nM |
| GAAAAGCAAGGAUAUACAUGAGGAUCACCCAUGUAACCUGAAAGCAUGAUCGGUGACAGUAGAAGGUGCGAAAU [Tixegerice] | 22.3 nM | 56.9 nM |
| GAAAAGCAAGGAUAUACAUGAGGAUCACCCAUGUGGAAUGGCGUGACCUAAAGAAAAGGUAGAAGGUGCACGUG [Soangebi] | 166 nM | 341 nM |
| GAAAAGUCAGGAUAUGCGAAGGCGUCUGAUAGACGAGGCUAGCAGAAGGGACAUGAGGAUCACCCAUGUGGAAG [Mat - Exclusion 4 - Eli mod - D90] | 76.5 nM | 157 nM |
